# Target: T1, human TREM2 (Homo sapiens, UniProt Q9NZC2)
# T1 construct: HEK293 Flp-In cells either expressing human full-length TREM2 or empty vector; expressed in transfected cells
# T1 sequence (Q9NZC2 19-230): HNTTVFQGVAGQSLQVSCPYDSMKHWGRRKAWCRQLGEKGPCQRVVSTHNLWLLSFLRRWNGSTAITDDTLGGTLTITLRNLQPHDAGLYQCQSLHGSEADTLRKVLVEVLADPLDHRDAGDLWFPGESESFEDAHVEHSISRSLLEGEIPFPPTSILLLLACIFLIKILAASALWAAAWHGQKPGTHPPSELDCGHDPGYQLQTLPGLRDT
# Test: sTREM2 ELISA of conditioned media from HEK293 Flp-In cells stably overexpressing wt TREM2 (ectodomain shedding)
# Format: cell-based
# Details: antibody 50 μg/mL, 24 hrs; normalized to immature TREM2; FIG. 7B
# Protocol: 1*10^6-1.5*10^6 cells were seeded in the 6-well format. 24 hours later fresh medium was added to the cells. Antibody clones as generated by Dr. Feederle (Helmholtz Center Munich, Core Facility Monoclonal Antibody Development) were added simultaneously, i.e. for overnight treatment (about 24 hrs), at a final concentration of 50 μg/mL. On the next day, conditioned media and cells were collected and processed as described under “Preparation of conditioned media, cell lysates, and immunoblotting”.
# ADAM10 inhibitor G1254023X (5 μM final concentration) and a control monoclonal antibody, which is specific for the C terminus of human TREM2, were used as positive and negative controls, respectively.
# For quantitation of levels of sTREM2 in cell culture supernatants, an ELISA for human sTREM2 was established using the Meso Scale Discovery SECTOR Imager 2400. Streptavidin-coated 96-well plates were blocked overnight at 4° C. in 0.5% bovine serum albumin (BSA) and 0.05% Tween 20 in PBS (pH 7.4) (blocking buffer). For detection of human sTREM2, plates were shaken for 1 hour at room temperature with biotinylated polyclonal goat anti-human TREM2 capture antibody (0.25 mg/ml; R&D Systems) diluted in blocking buffer. Plates were washed subsequently four times with 0.05% Tween 20 in PBS (washing buffer) and incubated for 2 hours at room temperature with samples diluted 1:4 in 0.25% BSA and 0.05% Tween 20 in PBS (pH 7.4) (assay buffer) supplemented with protease inhibitors (Sigma). Recombinant human TREM2 protein (Holzel Diagnostika) was diluted in assay buffer in a two-fold serial dilution and used for the standard curve (concentration range, 4000 to […]). Plates were washed three times for 5 min with washing buffer before incubation for 1 hour at room temperature with mouse monoclonal anti-TREM2 antibody (1 mg/ml; Santa Cruz Biotechnology; B-3) diluted in blocking buffer. After three additional washing steps, plates were incubated with a SULFO-TAG-labeled anti-mouse secondary antibody (1:1000; Meso Scale Discovery) and incubated for 1 hour in the dark. Last, plates were washed three times with washing buffer followed by two washing steps in PBS and developed by adding Meso Scale Discovery Read buffer. The light emission at 620 nm after electrochemical stimulation was measured using the Meso Scale Discovery SECTOR Imager 2400 reader. To quantify the levels of sTREM2 secreted from HEK293 Flp-In cells, conditioned media from biological replicates were analyzed in duplicates. The sTREM2 standard curves were generated using the MasterPlex ReaderFit software (MiraiBio Group, Hitachi Solutions America) through a five-parameter logistic fit. Levels of sTREM2 were subsequently normalized to levels of immature TREM2 as quantified from Western Blots.
row,Molecule,"sTREM2 levels (ELISA), result in words"
1,"clone 15C5: rat monoclonal antibody against TREM2 cleavage site peptide; heavy chain variable SEQ ID NO: 30, light chain variable SEQ ID NO: 40 (antibody, V domains shown, Clone 15C5 variable region of the heavy chain; Clone 15C5 variable region of the light chain) VH: EVKLLESGGGLVQPGGSMRLSCAASGFTFTDFYMNWIRQPAGKAPEWLGLIRNKAYGYTTEYNPSVKGRFTISRDNTQDMLYLQMNTLRAEDTATYYCARIGINYGGSLDYWGQGVMVTVSS VL: DILINQSPASLTVSAGEKVTVSCKSSQSLLYSESNQDYLAWYQQKPGQFPKLLIYGASYRHTGVPDRFTGSGSGTDFTLTISSVQAEDLAHYYCEQTYSYPYTFGAGTKLELK",slight trend toward reduced sTREM2 levels
2,"clone 18F9: rat monoclonal antibody against TREM2 cleavage site peptide; heavy chain variable SEQ ID NO: 29, light chain variable SEQ ID NO: 39 (antibody, V domains shown, Clone 18F9 variable region of the heavy chain; Clone 18F9 variable chain of the light region) VH: EVKLLESGGGLVQPGGSMRLSCVVSGFTFTDFYMNWIRQAAGKAPEWLGLIRNKVNGYRTEYNPSVKGRFTISRDNIQNMLYLQMNTLRAEDTATYYCARIGINNGGSLDYWGQGVMVTVSS VL: DILINQSPASLTVSAGEKVTMSCKSSQSLLYSENNQDYLAWYQQKPGQFPKLLIYGASNRHTGVPDRFTGSGSGTDFTLTISSVQAEDLADYYCEQTYSYPYTFGAGTKLELK",slight trend toward reduced sTREM2 levels
3,"clone 21A3: rat monoclonal antibody against TREM2 cleavage site peptide; heavy chain variable SEQ ID NO: 27, light chain variable SEQ ID NO: 37 (antibody, V domains shown, Clone 21A3 variable region of the heavy chain; Clone 21A3 variable region of the light chain) VH: EVKLLESGGGLVQPGGSMRLSCAASGFTFTDFYMNWIRQPAGKAPEWLGLIRNKANGYTTQYNPSVKGRFTISRDNTQNMLYLQMNTLRGEDTATYYCARIGINNGGSLDYWGQGVMVTVSS VL: DILINQSPASLTVSAGEKVTMSCKSSQSLLYSEKNQDYLAWYQQKPGQSPKLLMYGASYRHTGVPDRFTGSGSGTDFTLTISSVQAEDLADYYCEQTYSYPYTFGAGTKLELK",slight trend toward reduced sTREM2 levels
